Assays:
[1] = system: T1, B6-Z4; experiment: EMSA; conditions: 95% CI 49-66
T1 sequence 1: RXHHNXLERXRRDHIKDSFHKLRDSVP
T1 sequence 2: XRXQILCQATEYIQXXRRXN

[2] = system: T2, B1-Z2 helical tetramer; experiment: EMSA
T2 sequence 1: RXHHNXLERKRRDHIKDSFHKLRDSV
T2 sequence 2: XAQILCKATEYIQXMRRXN

[3] = molecular target: B-Z (MAX-derived STR, cross-dimer) (UniProt P61244); experiment: EMSA; conditions: 95% CI 13-19; also 16 in Tables 12, 14; 20 mM HEPES pH 8.0, 150 mM NaCl, 2 mM MgCl2
[4] = molecular target: B10-Z6 (UniProt P61244); experiment: EMSA
[5] = molecular target: B-Z2 (UniProt P61244); experiment: EMSA; conditions: apparent; Table 14 gives 22
[6] = molecular target: B (MAX basic helix alone) (UniProt P61244); experiment: EMSA; conditions: basic helix alone
[7] = system: T3, B1-Z; experiment: EMSA; conditions: apparent; Table 14 gives 17
T3 sequence 1: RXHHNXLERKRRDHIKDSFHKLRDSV
T3 sequence 2: XRAQILCKATEYIQYXRRK

[8] = molecular target: B-Z helical tetramer (UniProt P61244+P61244); experiment: EMSA
[9] = molecular target: B11-Z80 (STR1180) (UniProt P61244); experiment: EMSA; conditions: method inferred
[10] = system: T4, B1 (stapled MAX basic helix alone); experiment: EMSA; conditions: stapled basic helix alone
T4 sequence: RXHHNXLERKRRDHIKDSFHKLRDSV

[11] = system: BLI2-Z; experiment: EMSA; conditions: 500 nM sDBD
[12] = molecular target: B11s-Z8 (UniProt P61244); experiment: EMSA; conditions: method inferred
[13] = system: T5, B7-Z; experiment: EMSA; conditions: apparent; Table 14 gives 173
T5 sequence 1: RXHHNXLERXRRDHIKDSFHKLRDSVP
T5 sequence 2: XRAQILCKATEYIQYXRRK

[14] = system: T6, B3-Z; experiment: EMSA; conditions: apparent; Table 14 gives 76
T6 sequence 1: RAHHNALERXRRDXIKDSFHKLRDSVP
T6 sequence 2: XRAQILCKATEYIQYXRRK

[15] = molecular target: BLI1s-Z (UniProt P61244); experiment: EMSA; conditions: 25 nM sDBD
[16] = molecular target: B11-Z81 (UniProt P61244); experiment: EMSA; conditions: method inferred
[17] = molecular target: BLI2-ZL1 (UniProt P61244); experiment: EMSA; conditions: 500 nM sDBD
[18] = molecular target: B-Z4 (UniProt P61244); experiment: EMSA; conditions: apparent; Table 14 gives 14
[19] = system: T7, B7-Z4; experiment: EMSA
T7 sequence 1: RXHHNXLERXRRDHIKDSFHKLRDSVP
T7 sequence 2: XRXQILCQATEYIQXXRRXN

[20] = system: T8, B5-Z4; experiment: EMSA; conditions: 95% CI 98-126; Table 14 gives 118
T8 sequence 1: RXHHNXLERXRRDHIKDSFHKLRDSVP
T8 sequence 2: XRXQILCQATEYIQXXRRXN

[21] = molecular target: B-Z3 (UniProt P61244); experiment: EMSA; conditions: apparent; Table 14 gives 15
[22] = system: T9, B1-Z1; experiment: EMSA
T9 sequence 1: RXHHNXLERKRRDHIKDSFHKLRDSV
T9 sequence 2: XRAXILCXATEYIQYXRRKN

[23] = molecular target: BMADs-Z (UniProt P61244); experiment: EMSA; conditions: 25 nM sDBD; listed twice, second value 82% (possibly BMAD-Z)
[24] = system: T10, B2-Z4; experiment: EMSA
T10 sequence 1: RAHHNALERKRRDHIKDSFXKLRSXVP
T10 sequence 2: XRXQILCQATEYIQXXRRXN

[25] = molecular target: B-ZL1 (UniProt P61244+P61244); experiment: EMSA; conditions: listed as B-ZLI1; Table 14 gives 19
[26] = system: T11, B8-Z; experiment: EMSA; conditions: apparent; Table 14 gives 672 (conflict)
T11 sequence 1: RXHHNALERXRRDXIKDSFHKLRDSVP
T11 sequence 2: XRAQILCKATEYIQYXRRK

[27] = molecular target: B-ZM4 (UniProt P61244); experiment: EMSA
[28] = molecular target: B-ZM3 (UniProt P61244+P61244); experiment: EMSA; conditions: 25 nM sDBD
[29] = molecular target: BMYCs-Z (UniProt P61244); experiment: EMSA; conditions: 25 nM sDBD; listed twice, second value 19% (possibly BMYC-Z)
[30] = molecular target: BLI1-ZM5 (UniProt P61244); experiment: EMSA
[31] = molecular target: BLI1-ZM4 (UniProt P61244); experiment: EMSA
[32] = molecular target: B11-Z10 (UniProt P61244); experiment: EMSA; conditions: method inferred
[33] = molecular target: STR116 (B11-Z6) (UniProt P61244); experiment: EMSA; conditions: 95% CI 13-16; B11-Z6 14 in Table 14
[34] = system: B11-ZM4; experiment: EMSA
[35] = system: T12, B1-Z4; experiment: EMSA; conditions: 95% CI 37-43
T12 sequence 1: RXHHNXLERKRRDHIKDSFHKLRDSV
T12 sequence 2: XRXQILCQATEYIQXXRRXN

[36] = molecular target: T13, BLI1-ZL1 (UniProt P61244+P61244); experiment: EMSA; conditions: 95% CI 14-35; Table 14 gives 19
[37] = molecular target: B-Z1 (UniProt P61244); experiment: EMSA; conditions: apparent; Table 14 gives 45
[38] = system: T14, B1-Z2; experiment: EMSA; conditions: 95% CI 22-29
T14 sequence 1: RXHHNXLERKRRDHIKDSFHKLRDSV
T14 sequence 2: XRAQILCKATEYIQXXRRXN

[39] = system: T15, B2-Z2; experiment: EMSA
T15 sequence 1: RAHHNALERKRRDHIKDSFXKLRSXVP
T15 sequence 2: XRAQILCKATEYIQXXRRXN

[40] = system: T16, B8-Z4; experiment: EMSA
T16 sequence 1: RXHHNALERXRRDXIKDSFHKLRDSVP
T16 sequence 2: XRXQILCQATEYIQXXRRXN

[41] = molecular target: B11-Z4 (UniProt P61244); experiment: EMSA; conditions: 95% CI 16-20; Table 14 gives 38
[42] = system: T17, B4-Z; experiment: EMSA; conditions: apparent; Table 14 gives 25 (conflict)
T17 sequence 1: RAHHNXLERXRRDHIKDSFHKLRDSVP
T17 sequence 2: XRAQILCKATEYIQYXRRK

[43] = molecular target: B11-Z7 (UniProt P61244); experiment: EMSA
[44] = molecular target: BLI1-Z (UniProt P61244); experiment: EMSA; conditions: apparent; Table 14 gives 12
[45] = system: T18, B2-Z; experiment: EMSA; conditions: apparent; Table 14 gives 15
T18 sequence 1: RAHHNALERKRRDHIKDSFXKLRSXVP
T18 sequence 2: XRAQILCKATEYIQYXRRK

[46] = molecular target: STR118 (B11-Z8) (UniProt P61244); experiment: EMSA; conditions: 95% CI 3.0-4.0; B11-Z8 4.2 in Table 14
[47] = molecular target: B11-Z70 (UniProt P61244); experiment: EMSA; conditions: method inferred
[48] = system: T19, B12-Z6; experiment: EMSA
T19 sequence 1: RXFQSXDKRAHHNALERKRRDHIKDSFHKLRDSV
T19 sequence 2: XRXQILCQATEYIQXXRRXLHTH

[49] = molecular target: B-Z5 (C-terminally truncated zipper) (UniProt P61244); experiment: EMSA; conditions: apparent; Table 14 gives 88
[50] = system: T2, B1-Z2 helical tetramer; experiment: competition; conditions: helical tetramer vs MAX
[51] = molecular target: B10-Z6 (UniProt P61244); experiment: competition; conditions: vs MAX
[52] = molecular target: BMYC-Z (UniProt P61244); experiment: competition; conditions: MAX competition at 500 nM
[53] = system: BLI2-Z; experiment: competition; conditions: MAX competition at 500 nM
[54] = molecular target: BLI1s-Z (UniProt P61244); experiment: competition; conditions: MAX competition at 500 nM
[55] = molecular target: BMADs-Z (UniProt P61244); experiment: competition; conditions: MAX competition at 500 nM
[56] = molecular target: B-ZM4 (UniProt P61244); experiment: competition; conditions: MAX competition at 500 nM
[57] = molecular target: BMYCs-Z (UniProt P61244); experiment: competition; conditions: MAX competition at 500 nM
[58] = molecular target: BLI1-ZM4 (UniProt P61244); experiment: competition; conditions: vs MAX
[59] = molecular target: STR116 (B11-Z6) (UniProt P61244); experiment: competition; conditions: vs MAX/MAX 30 nM; Table 15 gives 65 for B11-Z6 (conflict); vs MYC/MAX 1.0 uM
[60] = system: B11-ZM4; experiment: competition; conditions: vs MAX
[61] = molecular target: T13, BLI1-ZL1; experiment: competition; conditions: vs MAX
[62] = molecular target: BMAD-Z (UniProt P61244); experiment: competition; conditions: MAX competition at 500 nM
[63] = molecular target: B11-Z4 (UniProt P61244); experiment: competition; conditions: vs MAX
[64] = molecular target: BLI1-Z (UniProt P61244); experiment: competition; conditions: vs MAX; 50% at 500 nM in Table 16
[65] = molecular target: STR118 (B11-Z8) (UniProt P61244); experiment: competition; conditions: vs MAX/MAX 30 nM; Table 15 gives 79 for B11-Z8; vs MYC/MAX 170 nM
[66] = system: T19, B12-Z6; experiment: competition; conditions: vs MAX

E-box probe
Kd [1]: 57 nM | Kd [2]: 1.8 nM | Kd [3]: 16 nM | Kd [4]: 16 nM | Kd [5]: 22 nM | Kd [6]: > 2000 nM | Kd [7]: 18 nM | Kd [8]: 2 nM | Kd [9]: 2.7 nM | Kd [10]: > 2000 nM | binding signal [11]: 72 % bound | Kd [12]: 6.5 nM | Kd [13]: 169 nM | Kd [14]: 77 nM | binding signal [15]: 50 % bound | Kd [16]: > 100 nM | binding signal [17]: 54 % bound | Kd [18]: 20 nM | Kd [19]: 234 nM | Kd [20]: 111 nM | Kd [21]: 18 nM | Kd [22]: 49 nM | binding signal [23]: 63 % bound | Kd [24]: 15 nM | Kd [25]: 20 nM | Kd [26]: 66 nM | Kd [27]: 8 nM | binding signal [28]: 53 % bound | binding signal [29]: 27 % bound | Kd [30]: 2.8 nM | Kd [31]: 10 nM | Kd [32]: 4.8 nM | Kd [33]: 14 nM | Kd [34]: 21 nM | Kd [35]: 40 nM | Kd [36]: 25 nM | Kd [37]: 58 nM | Kd [38]: 26 nM | Kd [39]: 18 nM | Kd [40]: 164 nM | Kd [41]: 18 nM | Kd [42]: 239 nM | Kd [43]: 22 nM | Kd [44]: 8.3 nM | Kd [45]: 19 nM | Kd [46]: 3.5 nM | Kd [47]: 11 nM | Kd [48]: 8 nM | Kd [49]: 98 nM | IC50 [50]: 1100 nM | IC50 [51]: 326 nM | activity [52]: 9% | activity [53]: 16% | activity [54]: 22% | activity [55]: 24% | activity [56]: 41% | activity [57]: 7% | IC50 [58]: 560 nM | IC50 [59]: 400 nM | IC50 [60]: 560 nM | IC50 [61]: 935 nM | activity [62]: 66% | IC50 [63]: 496 nM | IC50 [64]: 905 nM | IC50 [65]: 61 nM | IC50 [66]: 62 nM
